“Also recorded” adds a separate entry of the source.
How the values were obtained:
PapD [1] = biological target: T1, PapD (Escherichia coli, UniProt P15319); test: ELISA: peptide inhibition of PapD binding to MBP-G1'-140' fusion protein; parameters: species or system E. coli; conditions: PapD preincubated with peptide at 1:25 ratio
T1 sequence (P15319 22-239): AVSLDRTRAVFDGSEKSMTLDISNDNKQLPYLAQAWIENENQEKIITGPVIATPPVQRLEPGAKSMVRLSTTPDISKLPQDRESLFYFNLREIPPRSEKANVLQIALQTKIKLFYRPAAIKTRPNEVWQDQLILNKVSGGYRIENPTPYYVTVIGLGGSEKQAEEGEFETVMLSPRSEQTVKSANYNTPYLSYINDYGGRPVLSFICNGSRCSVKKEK
Protocol: The ability of the peptides to inhibit the binding of PapD to the MBP-G1'-140' fusion protein was then investigated using the following ELISA test:
Stock solutions of MBP-G1'-140' proteins in PBS were diluted to 0.1 μM with PBS. The wells of microtiter plates were coated with 50 μl of the protein solutions overnight at 4° C. The wells were washed with PBS, and blocked with 200 μl of 3% bovine serum albumin (BSA) in PBS for 2 hours at 25° C. The plates were washed vigorously three times with PBS and incubated with 50 μl of 1-5 μM PapD proteins in 3% BSA-PBS for 45 minutes at 25° C. The PapD was preincubated with each of the peptides at a 1:25 ratio for 30 min before being added to the wells. After three washings with PBS, the wells were incubated with a 1:500 dilution of rabbit anti-PapD antiserum in 3% BSA-PBS for 45 minutes at 25° C. After three washings with PBS, the wells were incubated with a 1:1000 dilution of goat antiserum to rabbit IgG coupled to alkaline phosphatase in 3% BSA-PBS for 45 minutes at 25° C. After three washings with PBS and three washings with developing buffer (10 mM diethanolamine, 0.5 mM MgCl2), 50 μl filtered 1 mg/ml p-nitrophenyl phosphate in developing buffer was added, the reaction was incubated for 1 hour or longer if necessary in the dark at 25° C., and the absorbance at 405 nm was read.

PapD [2] = biological target: T1, PapD; test: Soluble inhibition ELISA: peptide inhibition of PapD binding to G1'-19'WT-coated wells; parameters: made in house; species or system E. coli; conditions: peptide in solution
Protocol: In addition, the ability of water-soluble peptides to inhibit PapD binding to G1'-19'WT-coated wells in a soluble inhibition ELISA were tested, since peptide conformations may have been affected by binding to the plastic microtiter plates:
Microtiter wells were coated overnight at 4° C. with 50 μl of 2,5 pmol/50 μl of the G1'-19'WT peptide. The wells were washed with PBS and blocked with 3% bovine serum albumin (BSA). A 25-fold molar excess of each test peptide was pre-incubated with 100 pmoles PapD for 30 min. and the PapD-peptide solution was then added to the coated wells and incubated at 25° C. for 45 min in the presence of 3% BSA/PBS. The subsequent primary antibody, secondary antibody and developing steps are described above. The ability of the peptides to inhibit binding of PapD to the G1'-19'WT peptide was calculated by dividing the amount of PapD binding in the presence of peptide with the amount of PapD binding in the presence of water. 0% inhibition includes values where binding was greater than that of PapD pre-incubated with H2 O.
The % inhibition represents the percentage of PapD binding in the presence of the peptide compared to in the presence of water and are the average of two experiments performed duplicate: […]

PapD [3] = biological target: T1, PapD; test: Protection of PapD against tryptic cleavage by peptides; assay type: biochemical, E. coli; parameters: made in house; conditions: PapD preincubated with 20-fold molar excess of peptide
Protocol: A Lower: The rate of trypsin cleavage of PapD decreased upon preincubation with the G1'-19'WT, G1'-16'WT or K1'-19'WT peptides, but the G2'-21'amide peptide had no effect. 50 μg of purified PapD was preincubated for 15 min at 25° C. with a 20-fold molar excess of G1'-19'WT, G1'-16'WT, K1'-19'WT or G2'-21'amide peptides (any trypsin cleavage sites in these peptides occur at their amino termini where they were predicted not to interfere with PapD), or an equivalent volume of water. Each sample was then incubated at 37° C. with 3.2 μg of trypsin. Aliquots were removed after 0, 5, 10, 20, 30 and 40 min and boiled in SDS-PAGE sample buffer to stop the digestion. The samples were applied to 15% SDS-PAGE gels and the amount of full-length PapD remaining was determined by densitometry of Coomassie blue stained bands corresponding to full-length PapD which are shown.
400 μg of PapD was partially digested by incubation with either 4,5 μg trypsin or 0.45 μg chymotrypsin on PBS for 20 min. at 37° C. The PapD digests were applied to a C-18 HPLC column (Beckman) and 2 major fragments were eluted with a 0-100% acetonitrile gradient in 0.01% trifluoroacetic acid. The PapD fragments were identified by their molecular weight on SDS-PAGE and amino-terminal sequencing. The N-terminal amino acid sequences of the approximately 14 kDa tryptic and chymotryptic fragments were identified as residues 100-108 and 104-109 of PapD, respectively, corresponding to cleavage after Lys-99 (for trypsin) and Leu-103 (for chymotrypsin). The N-terminal sequences of the 11 and 12 kDa bands in the digests were identical to the N-terminal sequence of PapD.

NH2--KPGELSGSMTMVLSFP--COOH (H-KPGELSGSMTMVLSFP-OH) [G1'-16'WT]
inhibition of binding of PapD to MBP-G1'-140' fusion protein (PapD [1]): significantly more potent
inhibition of PapD binding to immobilized G1'-19'WT by soluble peptide (PapD [2]): inhibited binding
rate of tryptic cleavage of PapD (PapD [3]): decreased; also recorded: reduced the rate of tryptic cleavage

Reference: patent US6001823A, “Treatment or prophylaxis of diseases caused by pilus-forming bacteria” (priority 1995, dated 1999)
